Assay results as given in paper PMC11138481.

Assays:
[1] = target: GAS41 YEATS domain (residues 11–150) (human) (UniProt O95619); assay: MST
Flag-GAS41 H43S (human) = Flag-GAS41 H43S (human) (UniProt O95619); assay: co-IP
Chain of Flag-GAS41 H43S (human) (O95619 whole entry H43S): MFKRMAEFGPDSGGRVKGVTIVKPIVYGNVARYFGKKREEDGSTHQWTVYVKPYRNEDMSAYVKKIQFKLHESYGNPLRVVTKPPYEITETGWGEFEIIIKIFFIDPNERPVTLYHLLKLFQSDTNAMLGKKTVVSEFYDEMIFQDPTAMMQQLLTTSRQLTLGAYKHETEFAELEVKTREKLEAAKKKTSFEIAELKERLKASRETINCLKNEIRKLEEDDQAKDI

Chain of GAS41 YEATS domain (residues 11–150) (human) (O95619 11-150): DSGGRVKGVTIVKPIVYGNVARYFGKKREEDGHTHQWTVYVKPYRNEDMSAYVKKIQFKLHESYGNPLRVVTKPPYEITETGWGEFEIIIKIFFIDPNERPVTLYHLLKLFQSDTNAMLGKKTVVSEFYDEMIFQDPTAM

Row | Substance | Kd [1] [nM] | percent reduction of binding against Flag-GAS41 wt (Flag-GAS41 H43S (human)) [%]
1 | H3K27ac nucleosome core particle (from UniProt P04908 1-130; P62805 1-103) (complex) | 229 | 
2 | nucleosomal histone H3K27cr (endogenous) (from UniProt P68431 1-136) (natural protein) |  | > 60
3 | unmodified nucleosome core particle (from UniProt P04908 1-130; P62805 1-103) (complex) | 913 | 
4 | H3K27cr nucleosome core particle (from UniProt P04908 1-130; P62805 1-103) (complex) | 158 | 
